Assays:
[1] = molecular target: T1, human LAG-3 (full length, on the cell surface) (human, UniProt P18627 23-525); assay: FACS, HEK293-hLAG-3; 0.320 nM
T1 construct: Full-length human LAG-3 expressed on cells; also called HEK293-hLAG-3; HEK293 cells transfected with LAG-3 gene
T1 sequence: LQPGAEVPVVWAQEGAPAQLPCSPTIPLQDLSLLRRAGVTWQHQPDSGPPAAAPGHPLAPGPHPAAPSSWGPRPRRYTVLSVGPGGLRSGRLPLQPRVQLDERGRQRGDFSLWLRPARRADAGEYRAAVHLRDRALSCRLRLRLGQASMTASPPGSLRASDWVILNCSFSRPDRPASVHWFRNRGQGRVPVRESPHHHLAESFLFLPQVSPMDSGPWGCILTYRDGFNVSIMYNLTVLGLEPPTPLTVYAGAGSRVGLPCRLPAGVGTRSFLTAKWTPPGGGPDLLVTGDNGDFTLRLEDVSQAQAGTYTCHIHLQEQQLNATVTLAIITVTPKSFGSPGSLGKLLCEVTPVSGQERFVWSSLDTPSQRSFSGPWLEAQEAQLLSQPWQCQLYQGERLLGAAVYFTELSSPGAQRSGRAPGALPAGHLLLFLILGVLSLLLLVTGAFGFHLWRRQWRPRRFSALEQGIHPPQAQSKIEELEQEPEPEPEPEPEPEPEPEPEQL
Source text: The pIRES plasmid with the monkey-derived full-length gene was transfected into the HEK293 cell line to construct a HEK293 stable cell line containing monkey LAG-3 (herein referred to as HEK293-cLAG-3 stable cell line). The HEK293-hLAG-3 stable cell line and HEK293-cLAG-3 stable cell line were expanded in a T-75 cell culture flask to a 90% confluence. The medium was aspirated, and the cells were washed with HBSS (Hanks' Balanced Salt Solution) 1-2 times, then treated with a enzyme-free cell dissociation fluid (Versene solution: Life technology) and the cells were collected. The cells were washed with HBSS buffer for 1-2 times. After counted, the cells were diluted with HBSS to 1-2×10⁶ cells per ml, added with 1% goat serum blocking solution, incubated on ice for 20-30 minutes, and then washed with HBSS for 2 times by centrifugation. The collected cells were suspended in the FACS buffer (HBSS+1% BSA) to 2×10⁶ cells/ml, added as 100 microliters per well to a 96-well FACS reaction plate, added with 100 microliters per well of the antibody sample to be tested, incubated on ice for 1-2 hours. The plate was washed twice with the FACS buffer by centrifugation, added with 100 microliters of fluorescent (Alexa 488)-labeled secondary antibodies per well, and incubated on ice for 0.5-1.0 hours. The plate was washed 2-3 times with FACS buffer by centrifugation, added with 100 μl fixative solution (4% Paraformaldehyde) per well to suspend the cells. 5-10 minutes later, it was washed 1-2 times with FACS buffer by centrifugation. The cells were suspended with 100 microliters of FACS buffer, FACS (FACSCalibur, BD) was used for detection and the results were analyzed.

[2] = molecular target: T2, hFc tagged monkey LAG-3 protein (cLAG-3-hFc protein) (monkey; human); assay: ELISA, cLAG-3-hFc coated; 0.6667 nM
T2 construct: Made in HEK293 cells; also called monkey LAG-3 extracellular domain protein; not shown: human IgG Fc fragment (hFc) of the pCpC vector
T2 chain: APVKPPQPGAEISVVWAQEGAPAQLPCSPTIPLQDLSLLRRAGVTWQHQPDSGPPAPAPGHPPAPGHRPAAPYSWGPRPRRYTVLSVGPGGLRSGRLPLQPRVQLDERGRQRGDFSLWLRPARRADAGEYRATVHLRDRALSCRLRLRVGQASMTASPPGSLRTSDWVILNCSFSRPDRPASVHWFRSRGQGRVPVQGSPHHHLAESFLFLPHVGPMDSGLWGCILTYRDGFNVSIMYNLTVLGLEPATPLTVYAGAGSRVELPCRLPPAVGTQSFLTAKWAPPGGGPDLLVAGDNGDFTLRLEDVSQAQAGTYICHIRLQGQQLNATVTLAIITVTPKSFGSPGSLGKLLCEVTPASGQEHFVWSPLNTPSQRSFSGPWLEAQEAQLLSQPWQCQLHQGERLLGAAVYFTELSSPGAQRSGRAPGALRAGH
Experimental: (§1) The plate was sealed with plastic film and incubated overnight at 4° C. The plate was washed 2 times with the plate washing solution (PBS+0.01% Tween20) on the next day, and added with the blocking solution (PBS+0.01% Tween20+1% BSA) and blocked at room temperature for 1-2 hours. The blocking solution was poured out, and the plate was added with 50-100 μl of the antibody sample to be tested to each well, incubated at 37° C. for 1-2 hours, and washed 2-3 times with a plate washing solution (PBS+0.01% Tween20). HRP (horseradish peroxidase) labeled secondary antibody was added, and the plate was incubated at 37° C. for 1-2 hours, and washed 2-3 times with a plate washing solution (PBS+0.01% Tween20). 100 μl of TMB substrate was added to each well. After incubated at room temperature for 15-30 minutes, the plate was added with 100 μl of stop solution (1.0N HCl) to each well.

[3] = molecular target: T3, human LAG-3 protein with hFc tag (hLAG-3-hFc protein) (human, UniProt P18627 23-450); assay: ELISA, hLAG-3-hFc coated; 0.0000 nM
T3 construct: also called immunogen 1; LAG-3 extracellular domain protein; not shown: human IgG Fc fragment (hFc) of the pCpC vector
T3 sequence: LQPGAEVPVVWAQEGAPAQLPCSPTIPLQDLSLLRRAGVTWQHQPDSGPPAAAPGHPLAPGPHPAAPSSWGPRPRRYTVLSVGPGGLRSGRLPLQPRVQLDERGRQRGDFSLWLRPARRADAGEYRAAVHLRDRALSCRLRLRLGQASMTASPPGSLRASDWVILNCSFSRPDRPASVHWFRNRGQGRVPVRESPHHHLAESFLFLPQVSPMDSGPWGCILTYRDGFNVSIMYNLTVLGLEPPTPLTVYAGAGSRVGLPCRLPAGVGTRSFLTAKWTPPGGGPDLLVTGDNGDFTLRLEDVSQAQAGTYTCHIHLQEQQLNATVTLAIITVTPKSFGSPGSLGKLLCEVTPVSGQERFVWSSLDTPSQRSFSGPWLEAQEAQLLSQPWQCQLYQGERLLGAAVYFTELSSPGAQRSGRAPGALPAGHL
Experimental: as §1

B1: 405B8H3 (mouse antibody purified from hybridoma) (antibody, V domains shown)
VH: QVQLQQSGAELVRPGASVTLSCKASGYTFTDYEMHWVKQTPVHGLEWIGATDPETGNSAYNQKFKGKAIMTADKSSSTAYMELRSLTSEDSAVYYCISTGWNDWGQGTSLTVSS
VL: DIKMTQSPSSMYASLGERVTITCKASQDINSYLSWFQQKPGKSPKTLIYRADRLLDGVPSRFSGSGSGQDYSLTISSLEYGDMGIYYCLQYDEFPYTFGGGTKLEIK
notes: also called mAb103-405B8H3; 405B81-13
- Mean fluorescence intensity [1]: 24.7 MFI

B2: 409B11E12 (mouse antibody purified from hybridoma) (antibody, V domains shown)
VH: QVQLQQSGAELVRPGASVTLSCKASGYTFTDYEMHWVKQTTVHGLEWIGATDPETSYSAYNQKFKGKAILTADKSSSTAYMELRSLTSEDSAVYYCIATGWNDWGQGTSLTVSS
VL: DLKMTQSPSSMYASLGERVTITCKASQDINSYLSWFQQKPGKSPKTLIYRANRLLDGVPSRFSGSGSGQDYSLTISSLEYEDMGIYYCLQYDEFPYTFGGGTKLEIK
notes: also called mAb104-409B11E12
- Mean fluorescence intensity [1]: 13.4 MFI

B3: 409D4E10 (mouse antibody purified from hybridoma) (antibody, V domains shown)
VH: QVQLQQSGAELVRPGASVTLSCKASGNTFTDYEMHWVKQTPVHGLEWIGATDPETDNTAYNQKFKGKAILTTDKSSSTAYMELRSLTSEDSAVYYCITSGWNDWGQGTSLTVSS
VL: DIKMTQSPSSMYASLGERVTITCKASQDINSYLSWFQQKPGKSPKTLIYRANRLLDGVPSRFSGSGSGQDYSLTISSLEYEDMGIYYCLQYNEFPYTFGGGTKLEIK
notes: also called mAb112-409D4E10
- Mean fluorescence intensity [1]: 13 MFI

B4: 556F6B8 (mouse antibody purified from hybridoma) (antibody, V domains shown)
VH: RVQLKQSGPGLVQPSQSLSITCTVSGFSLIKYGVHWVRQSPGEGLEWLGVIWRGGITDYNAAFMSRLSITKDNSKSQVFFKMNSLQADDTAIYYCAKWDGPLAMDYWGQGTSVTVSS
VL: DIVMTQSHKFLSTSVGDRVSITCKASQDVGTTVAWYQQKPGQSPKLLIYWASTRHTGVPDRFTGSGSGTDFTLTISNVQSEDLADYFCQQYSSYPYTFGGGTKLEIK
notes: also called mAb123-556F6B8
- Mean fluorescence intensity [1]: 16.1 MFI

B5: 105F1E10 (mouse antibody purified from hybridoma) (antibody, V domains shown)
VH: EVQLQQSGPELVKPGASVKMSCRASGYTFTDFKMHWMKQSHGKSLEWIGYIAPNNGGTAYNQKFRGKATLTVNESSNTAYMELRSLTSEDSAVYYCVDWDDVDYWGQGTTLTVSS
VL: DIKMTQSPSSMYASLGERVTITCKASQDINSYLSWFQQKSGKSPKTLIYRANRLVDGVPSRFSGSGSGQDYSLTISSLEYEDMGIYYCLQYVEFPLTFGAGTKLELK
notes: also called mAb009-105F1E10
- Mean fluorescence intensity [1]: 23.3 MFI

B6: 105F1E10 (LAG-3 mouse-human chimeric antibody) (antibody, V domains shown)
VH: EVQLQQSGPELVKPGASVKMSCRASGYTFTDFKMHWMKQSHGKSLEWIGYIAPNNGGTAYNQKFRGKATLTVNESSNTAYMELRSLTSEDSAVYYCVDWDDVDYWGQGTTLTVSS
VL: DIKMTQSPSSMYASLGERVTITCKASQDINSYLSWFQQKSGKSPKTLIYRANRLVDGVPSRFSGSGSGQDYSLTISSLEYEDMGIYYCLQYVEFPLTFGAGTKLELK
- OD450 [2]: 3.38 OD450
- OD450 [3]: 0.11 OD450

B7: 405B8H3 (LAG-3 mouse-human chimeric antibody) (antibody, V domains shown)
VH: QVQLQQSGAELVRPGASVTLSCKASGYTFTDYEMHWVKQTPVHGLEWIGATDPETGNSAYNQKFKGKAIMTADKSSSTAYMELRSLTSEDSAVYYCISTGWNDWGQGTSLTVSS
VL: DIKMTQSPSSMYASLGERVTITCKASQDINSYLSWFQQKPGKSPKTLIYRADRLLDGVPSRFSGSGSGQDYSLTISSLEYGDMGIYYCLQYDEFPYTFGGGTKLEIK
notes: also called mouse-human chimeric antibody 405B8H3
- OD450 [2]: 3.39 OD450
- OD450 [3]: 0.12 OD450

B8: 409B11E12 (LAG-3 mouse-human chimeric antibody) (antibody, V domains shown)
VH: QVQLQQSGAELVRPGASVTLSCKASGYTFTDYEMHWVKQTTVHGLEWIGATDPETSYSAYNQKFKGKAILTADKSSSTAYMELRSLTSEDSAVYYCIATGWNDWGQGTSLTVSS
VL: DLKMTQSPSSMYASLGERVTITCKASQDINSYLSWFQQKPGKSPKTLIYRANRLLDGVPSRFSGSGSGQDYSLTISSLEYEDMGIYYCLQYDEFPYTFGGGTKLEIK
- OD450 [2]: 3.36 OD450
- OD450 [3]: 0.13 OD450

B9: 409D4E10 (LAG-3 mouse-human chimeric antibody) (antibody, V domains shown)
VH: QVQLQQSGAELVRPGASVTLSCKASGNTFTDYEMHWVKQTPVHGLEWIGATDPETDNTAYNQKFKGKAILTTDKSSSTAYMELRSLTSEDSAVYYCITSGWNDWGQGTSLTVSS
VL: DIKMTQSPSSMYASLGERVTITCKASQDINSYLSWFQQKPGKSPKTLIYRANRLLDGVPSRFSGSGSGQDYSLTISSLEYEDMGIYYCLQYNEFPYTFGGGTKLEIK
- OD450 [2]: 3.78 OD450
- OD450 [3]: 0.14 OD450

B10: 556F6B8 (LAG-3 mouse-human chimeric antibody) (antibody, V domains shown)
VH: RVQLKQSGPGLVQPSQSLSITCTVSGFSLIKYGVHWVRQSPGEGLEWLGVIWRGGITDYNAAFMSRLSITKDNSKSQVFFKMNSLQADDTAIYYCAKWDGPLAMDYWGQGTSVTVSS
VL: DIVMTQSHKFLSTSVGDRVSITCKASQDVGTTVAWYQQKPGQSPKLLIYWASTRHTGVPDRFTGSGSGTDFTLTISNVQSEDLADYFCQQYSSYPYTFGGGTKLEIK
notes: also called 556F8B8
- OD450 [2]: 3.7 OD450
- OD450 [3]: 0.12 OD450

— patent US20210155689A1 (SHANGHAI PHARMAEXPLORER, published 2021)
